Measurements from US8242083B2, “Kinase substrates” (PerkinElmer Health Sciences, Inc., priority 2008, dated 2012).

What was measured:
Type in all cases: biochemical
JAK1 = JAK1 (Homo sapiens, UniProt P23458); assay: TR-FRET kinase assay, JAK1; conditions: Kinase Concentration 7 nM; 50 nM ULight-labeled substrate, 200 micromolar ATP, 2 hours
Procedure: (§1) TR-FRET kinase assays are performed under standardized conditions: various individual kinases are incubated with 50 nM of kinase substrate BRB1 labeled with the TR-FRET acceptor dye ULight (PerkinElmer) and 200 micromolar ATP in 10 μL of kinase assay buffer (50 mM HEPES pH7.5, 10 mM MgCl2, 3 mM MnCl2, 1 mM EGTA, 2 mM DTT and 0.01% Tween-20) for 2 hours at room temperature. Reactions are stopped with EDTA, and anti-phospho-tyrosine antibodies (clone PT66) labeled with the TR-FRET europium chelate donor dye are added to a final concentration of 2 nM in a final volume of 20 μL. The TR-FRET signal emitted at 665 nm is read one hour after the addition of antibodies using a TR-FRET plate reader such as the Envision® Multilabel Plate reader (PerkinElmer). The emitted signal at 665 nm is proportional to the extent of peptide phosphorylation, Control reactions indicative of background are performed excluding ATP from the reaction.
(§2) Assay conditions are identical to those used described for FIG. 1.

YES = YES (Homo sapiens, UniProt P07947); assay: TR-FRET kinase assay, YES; conditions: Kinase Concentration 0.25 nM; 50 nM ULight-labeled substrate, 200 micromolar ATP, 2 hours
Sequence of YES (P07947 whole entry, species assumed): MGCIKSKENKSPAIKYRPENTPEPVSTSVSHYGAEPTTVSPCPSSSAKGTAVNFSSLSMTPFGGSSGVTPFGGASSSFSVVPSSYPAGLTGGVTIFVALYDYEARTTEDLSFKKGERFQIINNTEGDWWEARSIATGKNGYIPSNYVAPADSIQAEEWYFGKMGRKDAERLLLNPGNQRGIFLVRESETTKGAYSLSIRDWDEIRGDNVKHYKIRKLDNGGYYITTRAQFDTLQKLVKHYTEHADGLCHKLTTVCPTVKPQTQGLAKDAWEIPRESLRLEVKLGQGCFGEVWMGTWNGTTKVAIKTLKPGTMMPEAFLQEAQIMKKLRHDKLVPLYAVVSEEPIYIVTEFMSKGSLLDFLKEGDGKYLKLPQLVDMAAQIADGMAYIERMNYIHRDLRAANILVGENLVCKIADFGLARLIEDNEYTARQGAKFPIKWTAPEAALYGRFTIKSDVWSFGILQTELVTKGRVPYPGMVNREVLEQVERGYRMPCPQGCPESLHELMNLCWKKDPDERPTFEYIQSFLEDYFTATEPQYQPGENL
Procedure: as §1, §2

EphA8 = target: T1, EphA8 (Homo sapiens, UniProt P29322); assay: TR-FRET kinase assay, EphA8; conditions: Kinase Concentration 0.25 nM; 50 nM ULight-labeled substrate, 200 micromolar ATP, 2 hours
T1 sequence (P29322 28-1005): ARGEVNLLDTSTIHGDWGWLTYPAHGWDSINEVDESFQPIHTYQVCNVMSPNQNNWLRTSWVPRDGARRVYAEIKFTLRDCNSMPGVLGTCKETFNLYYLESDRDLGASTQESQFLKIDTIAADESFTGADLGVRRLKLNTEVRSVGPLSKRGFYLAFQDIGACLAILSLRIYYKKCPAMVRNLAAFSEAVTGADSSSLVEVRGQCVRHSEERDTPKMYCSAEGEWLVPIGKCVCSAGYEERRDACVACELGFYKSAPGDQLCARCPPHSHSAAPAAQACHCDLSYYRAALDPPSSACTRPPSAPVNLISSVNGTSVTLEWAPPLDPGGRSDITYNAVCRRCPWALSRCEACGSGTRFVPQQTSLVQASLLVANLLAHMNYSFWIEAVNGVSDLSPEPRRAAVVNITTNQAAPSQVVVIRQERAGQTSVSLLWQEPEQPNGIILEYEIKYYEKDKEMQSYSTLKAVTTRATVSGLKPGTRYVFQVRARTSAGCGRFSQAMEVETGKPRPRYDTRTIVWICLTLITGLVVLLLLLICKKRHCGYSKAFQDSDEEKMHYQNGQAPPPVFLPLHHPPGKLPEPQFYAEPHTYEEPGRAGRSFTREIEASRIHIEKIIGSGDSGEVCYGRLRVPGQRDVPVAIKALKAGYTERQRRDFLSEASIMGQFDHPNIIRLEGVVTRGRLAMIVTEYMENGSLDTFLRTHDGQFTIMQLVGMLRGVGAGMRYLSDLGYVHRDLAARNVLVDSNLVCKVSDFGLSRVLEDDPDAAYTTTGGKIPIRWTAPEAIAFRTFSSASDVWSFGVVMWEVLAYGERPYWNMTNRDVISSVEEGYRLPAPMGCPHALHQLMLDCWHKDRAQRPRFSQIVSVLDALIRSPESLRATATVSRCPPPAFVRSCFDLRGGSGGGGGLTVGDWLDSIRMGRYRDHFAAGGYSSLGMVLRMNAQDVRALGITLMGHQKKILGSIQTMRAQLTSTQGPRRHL
Procedure: as §1, §2

EphB2 = target: T2, EphB2 (Homo sapiens, UniProt P29323); assay: TR-FRET kinase assay, EphB2; conditions: Kinase Concentration 0.25 nM; 50 nM ULight-labeled substrate, 200 micromolar ATP, 2 hours
T2 sequence (P29323 19-1055): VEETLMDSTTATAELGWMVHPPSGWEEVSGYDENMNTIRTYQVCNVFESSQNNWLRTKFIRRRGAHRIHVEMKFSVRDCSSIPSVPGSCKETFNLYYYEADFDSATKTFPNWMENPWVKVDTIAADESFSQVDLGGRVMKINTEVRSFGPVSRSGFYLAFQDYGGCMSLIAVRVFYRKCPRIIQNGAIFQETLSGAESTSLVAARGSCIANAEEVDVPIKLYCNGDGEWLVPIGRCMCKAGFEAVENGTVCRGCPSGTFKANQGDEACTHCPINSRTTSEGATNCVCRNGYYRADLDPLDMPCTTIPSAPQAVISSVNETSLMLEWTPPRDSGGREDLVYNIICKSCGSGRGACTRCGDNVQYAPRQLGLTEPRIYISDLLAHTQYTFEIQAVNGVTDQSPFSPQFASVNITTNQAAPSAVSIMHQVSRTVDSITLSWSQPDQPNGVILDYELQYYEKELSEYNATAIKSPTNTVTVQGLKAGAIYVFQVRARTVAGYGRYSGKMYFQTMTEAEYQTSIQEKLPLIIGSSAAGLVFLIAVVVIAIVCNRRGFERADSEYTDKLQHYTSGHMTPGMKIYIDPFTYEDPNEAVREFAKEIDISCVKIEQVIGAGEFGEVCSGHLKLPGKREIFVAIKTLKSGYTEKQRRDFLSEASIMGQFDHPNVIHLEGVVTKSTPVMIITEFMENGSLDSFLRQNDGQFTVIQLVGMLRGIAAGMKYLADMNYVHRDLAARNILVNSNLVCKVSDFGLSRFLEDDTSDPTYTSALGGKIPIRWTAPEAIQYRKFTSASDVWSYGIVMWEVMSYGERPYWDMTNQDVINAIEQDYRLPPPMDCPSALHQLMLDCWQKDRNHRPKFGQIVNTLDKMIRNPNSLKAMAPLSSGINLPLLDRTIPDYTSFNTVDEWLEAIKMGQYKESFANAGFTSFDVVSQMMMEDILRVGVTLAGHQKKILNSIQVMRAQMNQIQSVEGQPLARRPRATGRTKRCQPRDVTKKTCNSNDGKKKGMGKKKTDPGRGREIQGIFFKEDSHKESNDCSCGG
Procedure: as §1, §2

LTK = LTK (Homo sapiens, UniProt P29376); assay: TR-FRET kinase assay, LTK; conditions: Kinase Concentration 1 nM; 50 nM ULight-labeled substrate, 200 micromolar ATP, 2 hours
Sequence of LTK (P29376 17-864, species assumed): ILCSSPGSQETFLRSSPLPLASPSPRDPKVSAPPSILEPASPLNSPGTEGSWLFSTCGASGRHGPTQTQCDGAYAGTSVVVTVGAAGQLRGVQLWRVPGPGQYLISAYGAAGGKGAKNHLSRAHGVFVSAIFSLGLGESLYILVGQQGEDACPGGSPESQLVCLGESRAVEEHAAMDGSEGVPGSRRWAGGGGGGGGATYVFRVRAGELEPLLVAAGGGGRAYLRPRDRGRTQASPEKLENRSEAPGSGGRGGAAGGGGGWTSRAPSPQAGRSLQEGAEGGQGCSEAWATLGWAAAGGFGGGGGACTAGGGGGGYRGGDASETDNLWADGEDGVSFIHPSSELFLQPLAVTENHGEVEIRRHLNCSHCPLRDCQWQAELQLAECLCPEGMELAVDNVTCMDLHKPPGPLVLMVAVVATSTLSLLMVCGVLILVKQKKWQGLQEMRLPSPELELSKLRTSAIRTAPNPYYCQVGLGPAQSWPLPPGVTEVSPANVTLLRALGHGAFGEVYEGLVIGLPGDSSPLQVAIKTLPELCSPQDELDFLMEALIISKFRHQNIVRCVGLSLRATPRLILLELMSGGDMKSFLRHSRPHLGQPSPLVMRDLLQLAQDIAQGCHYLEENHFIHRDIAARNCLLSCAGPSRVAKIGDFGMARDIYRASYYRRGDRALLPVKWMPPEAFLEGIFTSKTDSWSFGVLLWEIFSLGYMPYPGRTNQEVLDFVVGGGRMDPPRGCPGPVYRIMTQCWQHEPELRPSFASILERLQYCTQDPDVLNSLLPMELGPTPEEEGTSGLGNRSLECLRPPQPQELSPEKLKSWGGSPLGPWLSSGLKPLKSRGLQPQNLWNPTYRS
Procedure: as §1, §2

ROR1 = ROR1 (Homo sapiens, UniProt Q01973); assay: TR-FRET kinase assay, ROR1; conditions: Kinase Concentration 20 nM; 50 nM ULight-labeled substrate, 200 micromolar ATP, 2 hours
Procedure: as §1, §2

Sequence of JAK1 (P23458 whole entry, species assumed): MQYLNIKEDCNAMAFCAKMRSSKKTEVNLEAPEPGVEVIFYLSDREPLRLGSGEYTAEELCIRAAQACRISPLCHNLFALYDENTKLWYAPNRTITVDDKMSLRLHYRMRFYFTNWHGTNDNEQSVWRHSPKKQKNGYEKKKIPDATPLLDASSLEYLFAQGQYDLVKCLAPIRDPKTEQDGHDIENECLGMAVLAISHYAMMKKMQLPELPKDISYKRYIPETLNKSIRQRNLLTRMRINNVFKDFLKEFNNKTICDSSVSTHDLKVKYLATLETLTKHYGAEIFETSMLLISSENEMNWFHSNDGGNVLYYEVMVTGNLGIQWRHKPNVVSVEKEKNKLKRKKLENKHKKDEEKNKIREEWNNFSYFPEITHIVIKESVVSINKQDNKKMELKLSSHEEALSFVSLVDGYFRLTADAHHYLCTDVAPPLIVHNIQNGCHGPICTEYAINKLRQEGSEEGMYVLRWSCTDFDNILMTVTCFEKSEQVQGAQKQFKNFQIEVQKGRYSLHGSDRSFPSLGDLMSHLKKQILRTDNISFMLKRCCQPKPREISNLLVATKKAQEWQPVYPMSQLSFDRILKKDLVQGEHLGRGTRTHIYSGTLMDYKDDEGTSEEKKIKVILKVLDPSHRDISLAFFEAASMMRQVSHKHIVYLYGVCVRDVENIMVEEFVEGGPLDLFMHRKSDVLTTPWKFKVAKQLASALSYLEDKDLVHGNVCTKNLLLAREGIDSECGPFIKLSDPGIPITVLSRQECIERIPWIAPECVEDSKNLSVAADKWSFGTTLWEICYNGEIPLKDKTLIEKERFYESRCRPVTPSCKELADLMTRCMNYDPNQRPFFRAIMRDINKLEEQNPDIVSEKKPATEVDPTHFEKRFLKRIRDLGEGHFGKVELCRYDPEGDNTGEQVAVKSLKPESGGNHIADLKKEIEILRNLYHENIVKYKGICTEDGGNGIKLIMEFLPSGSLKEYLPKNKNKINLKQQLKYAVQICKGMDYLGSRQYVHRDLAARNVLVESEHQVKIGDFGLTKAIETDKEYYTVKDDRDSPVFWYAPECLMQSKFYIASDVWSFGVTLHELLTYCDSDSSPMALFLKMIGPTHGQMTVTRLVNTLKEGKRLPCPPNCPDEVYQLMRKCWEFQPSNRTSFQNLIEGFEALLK

C AYE AYE AYE K EYA EYA EYA K AYA EYE R (CAYEAYEAYEKEYAEYAEYAKAYAEYER; tyrosine kinase substrate peptide) [BRB1]
Signal to Noise ratio with BRB1 Peptide (JAK1): 13.7
Signal to Noise ratio with BRB1 Peptide (YES): 28.0
Signal to Noise ratio with BRB1 Peptide (EphA8): 32.3
Signal to Noise ratio with BRB1 Peptide (EphB2): 28.8
Signal to Noise ratio with BRB1 Peptide (LTK): 13.7
Signal to Noise ratio with BRB1 Peptide (ROR1): 1.1
